For one substance, fold enrichment within mScarlet-2N4R condensates over the lattice results are on record in PMC6748660.

The target of the assay is full-length mScarlet-tagged tau (2N4R) (human) (UniProt P10636). Description: TIRF microscopy, condensate enrichment assay.

For the substance “GFP-tagged tau “bonsai” construct (fusion between the N- and C-terminus, lacking the MTBD)”, the fold enrichment within mScarlet-2N4R condensates over the lattice is 1.3 fold.
